{"source": "paper PMC3223204", "about": "“Implantation Serine Proteinase 1 Exhibits Mixed Substrate Specificity that Silences Signaling via Proteinase-Activated Receptors” (PLoS ONE, 2011)", "molecules": {"B1": {"name": "ISP1: recombinant implantation serine proteinase 1 expressed in Pichia pastoris, also known as Mouse Prss28 (protein, UniProt Q924N9 27-274, looked up)", "Serine protease 28": "KPVGIVGGQRTPPGKWPWQVSLRMYSYEVNSWVHICGGSIIHPQWILTAAHCIQSQDADPAVYRVQVGEVYLYKEQELLNISRIIIHPDYNDVSKRFDLALMQLTALLVTSTNVSPVSLPKDSSTFDSTDQCWLVGWGNLLQRVPLQPPYQLHEVKIPIQDNKSCKRAYRKKSSDEHKAVAIFDDMLCAGTSGRGPCFGDSGGPLVCWKSNKWIQVGVVSKGIDCSNNLPSIFSRVQSSLAWIHQHIQ", "modifications": "recombinant, Pichia pastoris-expressed", "notes": "recombinant implantation serine proteinase 1 expressed in Pichia pastoris, also known as Mouse Prss28"}}, "key": {"[1]": {"target": "T1, thrombin (Homo sapiens, UniProt P00734)", "T1 construct": "High activity human thrombin (cat. number 605195, lot B37722; 3,186 NIH units/mg) was from Calbiochem; purchased Calbiochem 605195", "test": "Effect of ISP1 on enzyme activity of thrombin", "format": "biochemical", "settings": "data not shown"}, "[2]": {"target": "T2, human PAR4 (Homo sapiens, UniProt Q96RI0, INS25FLNCCPGCCMEP)", "T2 construct": "expressed in transfected cells; host or cells: COS-1", "T2 sequence (Q96RI0 with tags, fused parts or gaps)": "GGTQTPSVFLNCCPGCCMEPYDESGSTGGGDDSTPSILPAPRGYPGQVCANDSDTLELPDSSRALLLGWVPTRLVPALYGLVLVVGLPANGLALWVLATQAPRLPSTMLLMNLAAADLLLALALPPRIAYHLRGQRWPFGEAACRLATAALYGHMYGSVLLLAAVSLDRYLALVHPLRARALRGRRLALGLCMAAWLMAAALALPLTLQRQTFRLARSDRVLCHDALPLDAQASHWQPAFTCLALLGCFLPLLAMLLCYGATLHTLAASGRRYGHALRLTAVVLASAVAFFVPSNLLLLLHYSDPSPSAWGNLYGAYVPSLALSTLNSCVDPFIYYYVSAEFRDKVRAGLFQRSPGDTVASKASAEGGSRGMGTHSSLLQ", "test": "Release of N-terminal BAB motif from PAR4 on COS-1 cells", "format": "cell-based", "settings": "0.1 and 0.5 units per ml, 37°C, 30 minutes", "from_the_text": "The biarsenical fluorochrome binding domain (BAB), containing a tetra-cysteine motif, […] for PAR1, […] for PAR2 and […] for PAR4 was inserted into the receptor N-terminal domains by introducing corresponding oligonucleotides just downstream of the signal peptide of PARs, after A26 for human PAR1, Q27 for human PAR2 and V25 for human PAR4. The PAR DNA constructs containing the N-terminal BAB domain and a YFP C-terminal fluorochrome tag were cloned in pCDNA3.1+ at the restriction enzyme sites between Eco RI and Xba I. COS-1 cells obtained from ATCC (Manassas, VA USA) were transected with the PAR constructs with the FuGENE6 transfection reagent (Roche Applied Bioscience). The expression level of the expressed receptor was quantified using a fluorescence plate reader, (Victor 4X, Perkin-Elmer), and confocal microscopy was used to monitor the receptor location by visualizing the receptor YFP tag. […] Then, the peptide(s) containing the receptor BAB tetracysteine motif released by proteinases from the receptor N-terminus into the cell culture supernatant was quantified using a Victor X4 fluorescent plate reader with an excitation wavelength of 540 nm and an emission wavelength monitored at 615 nm. […]"}, "[3]": {"target": "T3, trypsin (Sus scrofa, UniProt P00761)", "T3 construct": "Porcine trypsin (cat. number T-3030; 14,500 units/mg); purchased Sigma-Aldrich T-3030 (printed as T0303); host or cells: porcine pancreas", "T3 sequence (P00761 9-231)": "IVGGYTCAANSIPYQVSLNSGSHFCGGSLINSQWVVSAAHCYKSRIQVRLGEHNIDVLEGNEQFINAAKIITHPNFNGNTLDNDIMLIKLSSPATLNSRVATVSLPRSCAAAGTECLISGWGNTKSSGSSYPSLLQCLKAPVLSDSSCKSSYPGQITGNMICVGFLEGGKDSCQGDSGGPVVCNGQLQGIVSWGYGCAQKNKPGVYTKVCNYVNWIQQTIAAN", "test": "Effect of ISP1 on enzyme activity of trypsin", "format": "biochemical", "settings": "data not shown"}}}
{"molecule": "B1", "values": [{"measurement": "Inhibitory effect on enzyme activity of thrombin", "setting": "[1]", "value": "doesn't have any inhibitory effect"}, {"measurement": "Release of PAR4 N-terminal BAB domain (PAR cleavage activity)", "setting": "[2]", "value": "significant concentration-dependent PAR cleavage activity"}, {"measurement": "Inhibitory effect on enzyme activity of trypsin", "setting": "[3]", "value": "doesn't have any inhibitory effect"}]}
